The values that follow come from US9364516B2, “Treatment of fibrosis-related disorders using fibronectin binding proteins and polypeptides” (priority 2010, dated 2016).

The test system of assay [1] is human saphenous veins. Kind of assay: Ex vivo cultured human saphenous veins, intimal thickening. The following applies: 15 μM, 14 days culture in 10% FBS/M199. On the procedure: Saphenous veins were cut into 0.5 cm segments, and processed immediately (●) or cultured in 10% FBS/M199 containing 15 μM control III-11c peptide (▪) or pUR4 (▴) at 37° C. for 14 days. Veins were fixed, paraffin embedded, sectioned, and stained. Morphometric analysis was performed on six randomly chosen sections using Image-Pro Plus software. The intima/media ratio was determined by dividing intima area by media area. Paired student t-test was used to analyze the data. Data are expressed as mean±S.E.M. *p<0.05.
Human saphenous veins cultured in serum containing media develop intimal hyperplasia after 14 days in culture (Soyombo et al., “Intimal Proliferation in an Organ Culture of Human Saphenous Vein,” Am J Pathol. 137(6):1401-1410 (1990); Angelini et al., “Smooth Muscle Cell Proliferation in Response to Injury in an Organ Culture of Human Saphenous Vein,” Eur J Vasc Surg. 5(1):5-12 (1991); and Slomp et al., “Nature and Origin of the Neointima in Whole Vessel Wall Organ Culture of the Human Saphenous Vein,” Virchows Arch. 428(1):59-67 (1996), which are hereby incorporated by reference in their entirety). This system thus provides an ex vivo model system for studying mechanisms that lead to intimal hyperplasia that has distinct advantages over in vitro culture systems. […]

Assay [2] deals with laminin. Kind of assay: ELISA binding of pUR4 to ECM proteins: laminin. The following applies: plates coated 10 μg/mL, FIG. 7. On the procedure: FIG. 7 is a graph depicting the binding of pUR4 to ECM Proteins. 96-well plates were coated with 10 μg/mL type I collagen (COL), denatured type I collagen (dCOL), fibronectin (FN), laminin (LN), vitronectin (VN), or fibrinogen (FG) at 4° C. overnight. pUR4 was added to the wells and serially diluted. Bound pUR4 was detected as described herein. Measurements were done at 405 nm on a Wallac 1420 multilabel counter. Data represents the average of duplicate determinations, and the error bars the range.
96-well tissue culture plates were coated with 10 μg/mL type I collagen, fibronectin, laminin, fibrinogen, or vitronectin overnight at 4° C. Denatured collagens were generated as described (George et al., “Fibronectins are Essential for Heart and Blood Vessel Morphogenesis but are Dispensable for Initial Specification of Precursor Cells,” Blood 90:3073-3081 (1997), which is hereby incorporated by reference in its entirety). Plates were blocked with 1% bovine serum albumin (BSA) in Tris buffered saline (TBS) for 1 hour, then washed with TBS. pUR4 was serially diluted into coated wells, then incubated at room temperature for 90 min. Wells were washed with TBS containing 0.1% Tween 20. […] After washing, peroxidase activity was quantified by using 2,2′-azino-bis-(3-ethylbenthiazoline-[…]). […]
A general note: ELISA stands for enzyme-linked immunosorbent assay.

B1: pUR4: 49-mer peptide derived from the bacterial F1 adhesin, His tagged, SEQ ID NO:1; class I fibronectin polymerization inhibitor (peptide)
chain: MRGSHHHHHHGSKDQSPLAGESGETEYITEVYGNQQNPVDIDKKLPNETGFSGNMVETEDTKLN
modifications: His tag; Bacterial adhesin derived peptide pUR4
Consider B1, for which, in assay [1], the intima/media ratio result is recorded as “decreases”. Further, in assay [2], the binding to laminin result is listed as “does not bind”.
